For two sequences, binding signal and binding results are on record in PMC3868556.

Data set [1] deals with ComP (Neisseria meningitidis 8013 (serogroup C clinical isolate)). The experiment in a line: SPR. The note with it: SPR (ProteOn XPR36, NLC chip): 25 mM HEPES pH 7.9, 150 mM NaCl, 2.5 mM MgCl2, 0.05% Tween-20, 25 C, 30 uM ComP; EMSA: native 10% acrylamide, LightShift kit …. In general terms: Mobility shift assays separate free from complexed probe on a gel.
For data set [2], the system named is T1, ComPsub (Neisseria subflava), UPI00280B593C.
T1 sequence: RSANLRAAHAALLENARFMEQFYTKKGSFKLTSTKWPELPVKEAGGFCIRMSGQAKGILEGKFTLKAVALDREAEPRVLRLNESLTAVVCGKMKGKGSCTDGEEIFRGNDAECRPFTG
Kind of data set: EMSA. The conditions noted are these: SPR (ProteOn XPR36, NLC chip): 25 mM HEPES pH 7.9, 150 mM NaCl, 2.5 mM MgCl2, 0.05% Tween-20, 25 C, 30 uM ComP; EMSA: native 10% acrylamide, LightShift kit ….

For “TGACCATGCCGTCTGAACAAAC (double strand) [DUS]”, the binding signal in data set [1] was 100 % of DUS Req.
In the case of “GTATGGGCGGCTCGGCGTTTGGTCAGGTGTACAACAATATGAGCGGCGACGCGCCCGATTTGGACGATACAGGCCGTCTGAAAGACTTTTACGGCGTGATTCAACAGCTTGTCGCCGAAGACAAACTCTTGGCGTATCACGACCGCAGCGAC (double strand) [purL fragment with one DUSvar1]”, the binding entry in data set [2] is “binds”.
